Reference: paper doi:10.1101/2024.05.21.594841 (bioRxiv, 2024)

What was measured:
Test in all cases: split reporter
[1] = target: T1, Sed4p (S. cerevisiae, UniProt P25365 1-1065)
T1 sequence: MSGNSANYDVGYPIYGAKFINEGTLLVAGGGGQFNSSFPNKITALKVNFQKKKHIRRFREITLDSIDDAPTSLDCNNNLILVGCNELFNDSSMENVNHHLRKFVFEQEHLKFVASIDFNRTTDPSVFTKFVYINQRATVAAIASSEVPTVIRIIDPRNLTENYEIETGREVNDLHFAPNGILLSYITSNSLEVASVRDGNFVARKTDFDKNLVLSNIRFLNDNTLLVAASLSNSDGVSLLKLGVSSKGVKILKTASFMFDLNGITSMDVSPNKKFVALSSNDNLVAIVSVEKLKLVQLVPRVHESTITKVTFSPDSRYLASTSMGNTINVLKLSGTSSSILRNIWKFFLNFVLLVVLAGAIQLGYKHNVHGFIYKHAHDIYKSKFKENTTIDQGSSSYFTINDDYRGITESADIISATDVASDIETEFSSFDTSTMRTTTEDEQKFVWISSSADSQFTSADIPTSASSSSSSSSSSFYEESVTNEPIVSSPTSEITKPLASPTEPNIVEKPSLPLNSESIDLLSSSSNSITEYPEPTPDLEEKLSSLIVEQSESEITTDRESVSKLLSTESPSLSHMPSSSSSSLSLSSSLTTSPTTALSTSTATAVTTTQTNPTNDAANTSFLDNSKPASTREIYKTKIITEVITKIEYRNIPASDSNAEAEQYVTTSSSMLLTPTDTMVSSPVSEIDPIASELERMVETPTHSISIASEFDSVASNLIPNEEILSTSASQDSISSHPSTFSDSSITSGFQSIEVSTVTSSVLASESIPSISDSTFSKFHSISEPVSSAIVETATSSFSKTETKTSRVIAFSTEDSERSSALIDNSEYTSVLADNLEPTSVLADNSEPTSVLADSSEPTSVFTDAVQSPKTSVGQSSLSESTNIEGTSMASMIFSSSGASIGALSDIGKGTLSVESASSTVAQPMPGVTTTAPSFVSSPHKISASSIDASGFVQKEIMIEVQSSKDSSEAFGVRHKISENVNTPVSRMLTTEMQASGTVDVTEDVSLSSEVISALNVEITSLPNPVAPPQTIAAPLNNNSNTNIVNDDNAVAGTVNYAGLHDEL

[2] = target: T2, Eug1p (S. cerevisiae, UniProt P32474 30-517)
T2 sequence: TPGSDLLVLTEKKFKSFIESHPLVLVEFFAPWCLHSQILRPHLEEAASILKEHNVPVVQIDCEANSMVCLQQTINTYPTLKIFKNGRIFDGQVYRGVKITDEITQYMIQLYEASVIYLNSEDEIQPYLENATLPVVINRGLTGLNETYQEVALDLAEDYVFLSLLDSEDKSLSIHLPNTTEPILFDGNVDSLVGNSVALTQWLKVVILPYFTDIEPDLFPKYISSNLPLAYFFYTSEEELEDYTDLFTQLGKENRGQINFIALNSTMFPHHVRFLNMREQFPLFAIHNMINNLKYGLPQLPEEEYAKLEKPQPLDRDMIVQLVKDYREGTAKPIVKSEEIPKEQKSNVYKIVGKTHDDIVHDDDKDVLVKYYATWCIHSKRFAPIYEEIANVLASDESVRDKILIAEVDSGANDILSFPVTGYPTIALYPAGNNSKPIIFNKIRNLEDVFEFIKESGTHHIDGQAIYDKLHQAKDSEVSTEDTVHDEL

[3] = target: T3, Mpd1p (S. cerevisiae, UniProt Q12404 22-318)
T3 sequence: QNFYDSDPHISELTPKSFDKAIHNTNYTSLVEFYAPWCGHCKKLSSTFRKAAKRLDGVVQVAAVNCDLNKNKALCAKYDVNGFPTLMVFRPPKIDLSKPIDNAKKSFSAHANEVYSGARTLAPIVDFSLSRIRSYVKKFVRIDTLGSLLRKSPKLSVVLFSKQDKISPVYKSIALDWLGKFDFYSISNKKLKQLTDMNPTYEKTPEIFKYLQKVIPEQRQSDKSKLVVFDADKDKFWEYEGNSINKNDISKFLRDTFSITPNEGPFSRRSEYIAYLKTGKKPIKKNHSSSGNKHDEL

[4] = target: T4, Qcr2p (S. cerevisiae, UniProt P07257 17-368)
T4 sequence: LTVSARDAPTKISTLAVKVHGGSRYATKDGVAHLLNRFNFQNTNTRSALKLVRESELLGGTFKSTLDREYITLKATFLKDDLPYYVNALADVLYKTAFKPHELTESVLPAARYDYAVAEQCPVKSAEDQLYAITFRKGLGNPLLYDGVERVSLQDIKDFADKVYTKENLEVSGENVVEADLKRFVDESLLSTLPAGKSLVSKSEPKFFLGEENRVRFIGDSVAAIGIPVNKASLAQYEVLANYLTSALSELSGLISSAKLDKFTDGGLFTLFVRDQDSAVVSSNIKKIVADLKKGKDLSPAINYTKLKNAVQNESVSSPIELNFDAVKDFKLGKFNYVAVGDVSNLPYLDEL

B1: Lhs1p (natural protein)
chain: AVLGVDYGQQNIKAIVVSPQAPLELVLTPEAKRKEISGLSIKRLPGYGKDDPNGIERIYGSAVGSLATRFPQNTLLHLKPLLGKSLEDETTVTLYSKQHPGLEMVSTNRSTIAFLVDNVEYPLEELVAMNVQEIANRANSLLKDRDARTEDFVNKMSFTIPDFFDQHQRKALLDASSITTGIEETYLVSEGMSVAVNFVLKQRQFPPGEQQHYIVYDMGSGSIKASMFSILQPEDTTQPVTIEFEGYGYNPHLGGAKFTMDIGSLIENKFLETHPAIRTDELHANPKALAKINQAAEKAKLILSANSEASINIESLINDIDFRTSITRQEFEEFIADSLLDIVKPINDAVTKQFGGYGTNLPEINGVILAGGSSRIPIVQDQLIKLVSEEKVLRNVNADESAVNGVVMRGIKLSNSFKTKPLNVVDRSVNTYSFKLSNESELYDVFTRGSAYPNKTSILTNTTDSIPNNFTIDLFENGKLFETITVNSGAIKNSYSSDKCSSGVAYNITFDLSSDRLFSIQEVNCICQSENDIGNSKQIKNKGSRLAFTSEDVEIKRLSPSERSRLHEHIKLLDKQDKERFQFQENLNVLESNLYDARNLLMDDEVMQNGPKSQVEELSEMVKVYLDWLEDASFDTDPEDIVSRIREIGILKKKIELYMDSAKEPLNSQQFKGMLEEGHKLLQAIETHKNTVEEFLSQFETEFADTIDNVREEFKKIKQPAYVSKALSTWEETLTSFKNSISEIEKFLAKNLFGEDLREHLFEIKLQFDMYRTKLEEKLRLIKSGDESRLNEIKKLHLRNFRLQKRKEEKLKRKLEQEKSRNNNETESTVINSADDKTTIVNDKTTESNPSSEEDILHDEL
- normalized interacting score [1]: > 40%
- normalized interacting score [2]: > 40%
- normalized interacting score [3]: 18%
- normalized interacting score [4]: 22%
